# Data as given in patent publication US20100266695A1 (University of California, published 2010).
# Where no end group is shown, it is not given here.
# Target: αvβ3 integrin on HeLa cells (human, UniProt P06756 31-1048; P05106 27-788)
# Experiment: cell-based or functional assay
# Sequence of αvβ3 integrin on HeLa cells (P06756 31-1048, chain 1 of 2): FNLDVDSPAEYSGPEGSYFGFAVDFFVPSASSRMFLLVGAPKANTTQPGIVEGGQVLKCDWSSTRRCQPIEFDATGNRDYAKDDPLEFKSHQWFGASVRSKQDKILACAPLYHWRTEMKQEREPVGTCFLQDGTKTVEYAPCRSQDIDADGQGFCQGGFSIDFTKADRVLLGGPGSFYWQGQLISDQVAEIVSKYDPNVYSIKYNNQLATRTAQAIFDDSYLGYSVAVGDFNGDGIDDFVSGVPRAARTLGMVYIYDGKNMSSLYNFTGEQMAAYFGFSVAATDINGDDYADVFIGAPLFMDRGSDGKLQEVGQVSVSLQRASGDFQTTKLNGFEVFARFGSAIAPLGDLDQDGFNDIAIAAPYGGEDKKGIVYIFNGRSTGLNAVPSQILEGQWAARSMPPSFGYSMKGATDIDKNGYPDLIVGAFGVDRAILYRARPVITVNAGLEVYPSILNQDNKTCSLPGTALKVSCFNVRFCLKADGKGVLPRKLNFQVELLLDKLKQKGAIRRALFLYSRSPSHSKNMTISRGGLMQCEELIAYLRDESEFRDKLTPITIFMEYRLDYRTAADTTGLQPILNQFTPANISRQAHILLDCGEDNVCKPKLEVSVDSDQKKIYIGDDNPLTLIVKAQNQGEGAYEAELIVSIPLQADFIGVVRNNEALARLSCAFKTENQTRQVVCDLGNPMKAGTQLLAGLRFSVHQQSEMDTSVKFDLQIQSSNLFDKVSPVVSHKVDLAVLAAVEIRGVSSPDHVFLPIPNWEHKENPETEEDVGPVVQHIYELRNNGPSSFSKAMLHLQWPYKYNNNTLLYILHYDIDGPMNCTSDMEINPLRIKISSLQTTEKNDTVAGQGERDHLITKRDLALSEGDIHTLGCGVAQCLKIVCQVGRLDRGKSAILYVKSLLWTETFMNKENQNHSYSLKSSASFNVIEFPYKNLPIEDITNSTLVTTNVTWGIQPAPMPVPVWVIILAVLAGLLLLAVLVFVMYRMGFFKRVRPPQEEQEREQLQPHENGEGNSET
# Sequence of αvβ3 integrin on HeLa cells (P05106 27-788, chain 2 of 2): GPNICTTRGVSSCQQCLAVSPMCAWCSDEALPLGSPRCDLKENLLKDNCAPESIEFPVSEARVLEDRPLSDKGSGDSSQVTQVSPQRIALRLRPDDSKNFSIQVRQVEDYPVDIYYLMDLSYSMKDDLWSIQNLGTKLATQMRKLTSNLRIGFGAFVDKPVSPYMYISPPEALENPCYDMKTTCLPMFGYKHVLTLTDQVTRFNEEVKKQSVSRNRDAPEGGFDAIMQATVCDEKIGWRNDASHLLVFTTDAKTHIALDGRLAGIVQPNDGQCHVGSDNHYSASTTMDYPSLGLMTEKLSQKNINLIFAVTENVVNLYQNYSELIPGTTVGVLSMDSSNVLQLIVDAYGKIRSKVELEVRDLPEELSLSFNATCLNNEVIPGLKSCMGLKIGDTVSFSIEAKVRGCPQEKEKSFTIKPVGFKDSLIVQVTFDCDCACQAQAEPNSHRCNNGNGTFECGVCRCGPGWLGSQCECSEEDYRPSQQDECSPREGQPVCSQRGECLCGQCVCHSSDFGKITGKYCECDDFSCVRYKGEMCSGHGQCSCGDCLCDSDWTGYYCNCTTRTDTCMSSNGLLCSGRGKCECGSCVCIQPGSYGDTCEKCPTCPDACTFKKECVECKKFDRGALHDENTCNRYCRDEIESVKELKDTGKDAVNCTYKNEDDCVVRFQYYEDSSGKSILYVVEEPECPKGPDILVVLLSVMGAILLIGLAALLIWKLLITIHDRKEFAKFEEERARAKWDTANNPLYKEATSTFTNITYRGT
binder,measurement,value
"DNA/PEI-Au-Cap-RGD-ASA polyplex: DNA/poly(ethylene imine) polyplex covalently modified with Au-Cap-RGD-ASA nanoparticles (other, also: peptides on gold nanoparticle via thiol/gold, azidosalicylic acid added, residue not given here, crosslinked to PEI, bound to DNA/PEI polyplex) peptide 1: Ac-CCVVVTGRGDSPSSK-OH peptide 2: CCVVVT","Integrin Sensitivity Factor (ISF), ratio of the transfection level achieved with high and low αvβ3 density cells",60
same,"luciferase expression in low αvβ3 density HeLa cells, against unmodified polyplexes",5.4 fold
same,"transfection efficiency in high αvβ3 density HeLa cells, against unmodified polyplexes",35 fold
same,"transfection efficiency, HeLahigh against HeLalow",7 fold
"Au-Cap-RGD nanoparticles (RGD nanoclusters): 5 nm gold nanoparticles modified with a mixture of Cap and Cap-RGD peptides (also: peptides attached to 5 nm gold nanoparticle via thiol/gold, mixture of Cap and Cap-RGD) peptide 1: Ac-CCVVVTGRGDSPSSK-OH peptide 2: CCVVVT-OH","IC50 level of cell adhesion inhibition, as equivalent RGD peptide (anti-adhesion assay, HeLa cells on vitronectin)",0.1 µM
Ac-GCGYGRGDSPSSK-NH2 [free RGD peptide (Ac-GCGYGRGDSPSSK-NH2)],"IC50 concentration at which 50% of cell adhesion is inhibited (anti-adhesion assay, HeLa cells on vitronectin)",~100 µM
